Results taken from patent publication US9896489B2, “Family of synthetic polynucleotide-binding peptides and uses thereof” (Eastern Virginia Medical School, priority 2012, dated 2018).

T1: p110^RB, the hypophosphorylated form of Rb (Homo sapiens, UniProt P06400)
T1 construct: In proliferating cells, the Rb protein existed in several states of phosphorylation; endogenous in cells; host or cells: WR2E3 cells (inferred as the source of the extract put on the beads)
T1 sequence (P06400 1-928): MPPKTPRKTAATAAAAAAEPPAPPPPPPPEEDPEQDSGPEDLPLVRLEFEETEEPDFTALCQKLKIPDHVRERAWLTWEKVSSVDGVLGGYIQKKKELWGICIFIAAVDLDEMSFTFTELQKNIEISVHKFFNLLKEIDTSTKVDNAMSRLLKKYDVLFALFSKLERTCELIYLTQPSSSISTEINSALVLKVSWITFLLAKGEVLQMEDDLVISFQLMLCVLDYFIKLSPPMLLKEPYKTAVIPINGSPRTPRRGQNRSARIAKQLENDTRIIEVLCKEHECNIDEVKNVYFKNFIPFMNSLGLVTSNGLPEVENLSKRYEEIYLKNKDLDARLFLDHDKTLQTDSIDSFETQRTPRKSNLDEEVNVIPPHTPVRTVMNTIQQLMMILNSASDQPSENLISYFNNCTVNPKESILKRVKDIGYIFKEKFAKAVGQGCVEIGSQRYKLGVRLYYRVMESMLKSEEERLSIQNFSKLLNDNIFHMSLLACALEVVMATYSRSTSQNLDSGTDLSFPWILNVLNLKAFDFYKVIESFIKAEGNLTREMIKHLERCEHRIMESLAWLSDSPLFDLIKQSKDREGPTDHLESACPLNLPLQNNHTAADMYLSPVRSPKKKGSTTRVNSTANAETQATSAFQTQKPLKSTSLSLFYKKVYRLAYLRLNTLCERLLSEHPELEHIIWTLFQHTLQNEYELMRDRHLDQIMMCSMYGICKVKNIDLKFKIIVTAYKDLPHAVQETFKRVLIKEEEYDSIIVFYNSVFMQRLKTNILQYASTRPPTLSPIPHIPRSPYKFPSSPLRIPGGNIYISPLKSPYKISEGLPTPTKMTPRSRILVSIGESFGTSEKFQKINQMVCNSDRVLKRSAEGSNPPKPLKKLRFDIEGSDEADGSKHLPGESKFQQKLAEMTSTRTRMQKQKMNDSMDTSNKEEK


Legend:
[1] = test system: ALS ssDNA (GGGGCC hexanucleotide repeat expanded at C9ORF72); assay: Electrophoretic mobility shift assay with ALS ssDNA; type: binding; details: for binding of ALS repeat (qualitative): DNA concentration courses
Procedure: Infrared oligonucleotides representing a GGGGCC hexanucleotide repeat expanded at C9ORF72 in ALS patients were custom ordered and are referred to as ALS ssDNA. 4% polyacrylamide gel electrophoresis was performed using IR-labeled oligonucleotides and imaged using the Li-Cor Odyssey IR imaging instrumentation and software.
Electrophoretic Mobility Shift Assay-Various combinations of Purα, Purβ, TZIP, and IR-labeled oligonucleotides were prepared in the 5× Johnson binding buffer (Bergemann, Andrew D and Johnson, Edward M (1992), The HeLa Pur Factor Binds Single-Stranded DNA at a Specific Element Conserved in Gene Flanking Regions and Origins of DNA Replication. Molecular and Cellular Biology, vol 12:3 (1257-1265), incorporated by reference herein in its entirety), adjusted to 5 mM DTT, 5 mM EDTA, and 0.5% Tween 20. 4% polyacrylamide gel electrophoresis was performed on samples and imaged with the Li-Cor Odyssey instrumentation and software. Densitometry was performed on the DNA concentration course experiments using the Li-Cor Odyssey software.
A Kd value obtained for Purβ was complex and not readily interpretable.

NIH3T3 cells = assay: Purα injected into NIH3T3 cells at cell-cycle transition points; type: cell-based
Procedure: Purα was injected into NIH3T3 cells during various cell-cycle transition points to determine the effects of elevated Purα levels at different phases of the cell cycle. […] In FIG. 2, the clear bar represents dividing cells, the black bar represents non-dividing cells, and the shaded bar represents rapid cell death.

[2] = test system: ras-transformed NIH3T3 cells; assay: Anchorage independent growth of ras-transformed NIH3T3 cells; type: cell-based; details: pBABE and pBKPurα transfected, puromycin selected
Description: Purα also antagonizes colony formation and anchorage-independent growth related to ras-transformation of NIH3T3 cells. Ras-transformed cells were transfected with pBABE (empty vector) and either pBK (empty vector) or pBKPurα expression construct and selected for puromycin resistance. Referring to FIG. 4, panel A (pBABE) and panel B (pBABE+pBK) show anchorage independent cell growth.

[3] = test system: ras-transformed and non-transformed NIH3T3 cells; assay: Cell cycle progression (FACS DNA content) in cells stably transfected to over-express Purα; type: cell-based; details: two to five-fold elevated levels of Purα in stably transfected cell lines
Description: Cells were released from a double thymidine block, which arrests cells upon entry to S phase, into normal growth medium. Samples were subjected to fluorescence-activated cell sorting to determine cellular DNA content.
Stably transfected or co-transfected pools and transfected clones are shown on the right.
A pool of ras-transformed cells were stably transfected or co-transfected with the following: (a) pBABE, an empty vector; (b) pBABE+pBK, both empty expression vectors; (c) pBABE+pBKPurα, to over-express Purα; (d) pBABE+pBKPurα^low to express Purα at a level near that of endogenous Purα; (e) pBABE+pBKPurα^high to express Purα at a level nearly 5-fold that of endogenous Purα; (f) pEBV, an empty expression vector (g) pEBVPurα to over-express Purα. 4N indicates completion of DNA synthesis.

[4] = molecular target: T1, p110^RB, the hypophosphorylated form of Rb; assay: GST bead pull-down of Rb, anti-Rb blot; type: binding; details: protein on glutathione-agarose beads
Procedure: Rb was detected in extracts of monkey CV-1 cells complexed with Purα. These complexes can be immunoextracted from cell lysates using monoclonal antibodies to either Purα or Rb.
Proteins expressed in bacteria were bound to glutathione-agarose beads. Unfused GST was prepared in the same manner for use as a control. Beads containing equivalent amounts of each protein were used for each lane. Beads were collected, washed, and bound proteins were subjected to electrophoresis. The proteins were then blotted and probed with anti-Rb monoclonal antibody.
In contrast, binding of Rb to control GST alone was nil. IPP represents Rb immunoprecipitated from WR2E3 cells using rabbit polyclonal anti-Rb antibody. In proliferating cells, the Rb protein existed in several states of phosphorylation, the hypophosphorylated state, p110^RB, migrating more rapidly on SDS gels (lane 1).

[5] = test system: FXS ssDNA (G-rich trinucleotide DNA repeats at FMR1); assay: Electrophoretic mobility shift assay with FXS ssDNA; type: binding
Description: A GE Microspin GST purification module was used to purify GST-tagged Purα and Purβ from bacterial lysate. Polyacrylamide gel electrophoresis with SDS-Page gels and molecular markers were used to verify that GST, Purα, and Purβ were expressed and purified. Expressed proteins were detected using antibodies against Purα and Purβ, including monoclonal mouse anti-Pur antibody developed in Johnson laboratory (clone 10B12) and polyclonal antibody against Purβ (Abcam). Polyacrylamide gel electrophoresis with TBE buffer was used for gel-mobility shift assay. Infrared-labeled oligonucleotides representing G-rich trinucleotide DNA repeats at FMR1 in patients with Fragile X Syndrome (FXS) were custom ordered and are referred to herein as FXS ssDNA. Infrared-labeled oligonucleotide substrates in agarose and polyacrylamide gels were detected through the use of the Odyssey (LICOR) instrumentation and software. […] When Purα and Purβ are combined (FIG. 17), by increasing the amount of Purβ, the DNA is shifted more to the top of the gel. Therefore, there is more binding of the proteins to the DNA. […] In FIG. 19, TZIP enhances the mobility shift of ssDNA FXS in the presence of Purα.

Molecule | binding of ALS repeat (qualitative) [1] | Kd ([1]; densitometry of DNA concentration course) [nM] | effect on cell cycle / cell fate (NIH3T3 cells; introduction of Purα in G1 phase) | effect on cell cycle / cell fate (NIH3T3 cells; introduction of Purα in later phases, such as G2-M phase) | anchorage independent growth [2] | S phase entry and progression [3] | binding to Rb [4] | binding / mobility shift of ssDNA FXS (qualitative) [5]
Purα: sequence-specific single-stranded DNA-binding protein; GST-tagged, purified from bacteria in the EMSA (protein, left off: a dimerising Fc or GST, GST-tagged, purified from bacteria in the EMSA) MADRDSGSEQGGAALGSGGSLGHPGSGSGSGGGGGGGGGGGGSGGGGGGAPGGLQHETQELASKRVDIQNKRFYLDVKQNAKGRFLKIAEVGAGGNKSRLTLSMSVAVEFRDYLGDFIEHYAQLGPSQPPDLAQAQDEPRRALKSEFLVRENRKYYMDLKENQRGRFLRIRQTVNRGPGLGSTQGQTIALPAQGLIEFRDALAKLIDDYGVEEEPAELPEGTSLTVDNKRFFFDVGSNKYGVFMRVSEVKPTYRNSITVPYKVWAKFGHTFCKYSEEMKKIQEKQREKRAACEQLHQQQQQQQEETAAATLLLQGEEEGEED | strongly bind the ALS repeat in low concentrations | 16 | arrested cells at the G1-S boundary, causing programmed cell death | arrested, but did not prevent, complete replication of the genome | repressed anchorage independent growth | retarded entry into and progression through S phase | – | –
Gst-Purα: GST fusion of Purα expressed in bacteria, bound to glutathione-agarose beads (protein, left off: a dimerising Fc or GST) MADRDSGSEQGGAALGSGGSLGHPGSGSGSGGGGGGGGGGGGSGGGGGGAPGGLQHETQELASKRVDIQNKRFYLDVKQNAKGRFLKIAEVGAGGNKSRLTLSMSVAVEFRDYLGDFIEHYAQLGPSQPPDLAQAQDEPRRALKSEFLVRENRKYYMDLKENQRGRFLRIRQTVNRGPGLGSTQGQTIALPAQGLIEFRDALAKLIDDYGVEEEPAELPEGTSLTVDNKRFFFDVGSNKYGVFMRVSEVKPTYRNSITVPYKVWAKFGHTFCKYSEEMKKIQEKQREKRAACEQLHQQQQQQQEETAAATLLLQGEEEGEED | – | – | – | – | – | – | bind exclusively to the hypophosphorylated forms of p110^RB | –
Purβ: Pur family protein, GST-tagged, purified from bacterial lysate (protein, UniProt Q96QR8 2-312, looked up, GST tag, Pur family protein, GST-tagged, purified from bacterial lysate) Transcriptional regulator …: ADGDSGSERGGGGGPCGFQPASRGGGEQETQELASKRLDIQNKRFYLDVKQNAKGRFLKIAEVGAGGSKSRLTLSMAVAAEFRDSLGDFIEHYAQLGPSSPEQLAAGAEEGGGPRRALKSEFLVRENRKYYLDLKENQRGRFLRIRQTVNRGGGGFGAGPGPGGLQSGQTIALPAQGLIEFRDALAKLIDDYGGEDDELAGGPGGGAGGPGGGLYGELPEGTSITVDSKRFFFDVGCNKYGVFLRVSEVKPSYRNAITVPFKAWGKFGGAFCRYADEMKEIQERQRDKLYERRGGGSGGGEESEGEEVDED | bound the ALS repeat to a much smaller degree | – | – | – | – | – | – | does not shift the ssDNA FXS as strongly as Purα
